Measurements published in patent publication US20120141464A1 (ZENYTH OPERATIONS, published 2012).

Legend:
human GM-CSFRα [1] = target: T1, human GM-CSFRα (human, UniProt P15509 23-400); assay: cell-based or functional assay
T1 sequence: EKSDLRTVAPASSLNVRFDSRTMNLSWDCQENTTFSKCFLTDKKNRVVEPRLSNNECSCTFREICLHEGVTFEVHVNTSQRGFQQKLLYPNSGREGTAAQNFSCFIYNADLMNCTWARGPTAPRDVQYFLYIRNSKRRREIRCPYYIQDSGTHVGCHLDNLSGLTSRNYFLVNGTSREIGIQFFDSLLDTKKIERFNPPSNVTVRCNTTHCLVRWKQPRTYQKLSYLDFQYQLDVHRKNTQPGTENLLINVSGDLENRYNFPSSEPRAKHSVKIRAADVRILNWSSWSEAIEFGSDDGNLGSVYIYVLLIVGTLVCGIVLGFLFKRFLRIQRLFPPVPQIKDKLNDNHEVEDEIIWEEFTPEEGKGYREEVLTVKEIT

cynomolgus GM-CSFRα = cynomolgus GM-CSFRα (cynomolgus); assay: cell-based or functional assay
human GM-CSFRα [2] = target: T1, human GM-CSFRα; assay: cell-based or functional assay; remark: listed apart in the source
[3] = target: T2, recombinant purification-tagged human GM-CSF receptor α extracellular domain (human, UniProt P15509 23-320); assay: SPR (BIAcore 2000); IgG4 captured on protein A, tagged receptor ECD as analyte; 1:1 Langmuir fit
T2 construct: Amino acids 1 to 298 of the mature receptor; also called purified GM-CSFRα extracellular domain; soluble extracellular domain of GM-CSFRα; not shown: N-terminal purification tag; Flag-tagged
T2 sequence: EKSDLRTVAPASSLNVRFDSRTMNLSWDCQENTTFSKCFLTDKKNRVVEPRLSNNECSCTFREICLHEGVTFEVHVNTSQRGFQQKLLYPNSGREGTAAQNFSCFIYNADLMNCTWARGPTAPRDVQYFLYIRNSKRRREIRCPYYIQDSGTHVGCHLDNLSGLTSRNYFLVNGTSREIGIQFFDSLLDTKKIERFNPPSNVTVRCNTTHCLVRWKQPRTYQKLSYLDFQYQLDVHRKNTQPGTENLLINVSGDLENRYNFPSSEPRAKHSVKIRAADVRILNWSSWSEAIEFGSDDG

human GM-CSFRα [4] = target: T1, human GM-CSFRα; assay: cell-based or functional assay; remark: listed apart in the source
human GM-CSFRα [5] = target: T1, human GM-CSFRα; assay: cell-based or functional assay; remark: listed apart in the source

Row | Binder | IC50, human granulocyte shape change assay (7 pM human GM-CSF) (human GM-CSFRα [1]) [pM] | IC50, cynomolgus granulocyte shape change assay (7 pM human GM-CSF) (cynomolgus GM-CSFRα) [pM] | IC50, TF-1 proliferation assay (7 pM human GM-CSF) (human GM-CSFRα [2]) [pM] | Kd [3] [nM] | IC50, monocyte TNFα release assay (1 nM human GM-CSF) (human GM-CSFRα [4]) [nM] | IC50, colony formation assay (10 ng/ml human GM-CSF) (human GM-CSFRα [5]) [µg/mL]
1 | Antibody 2 (antibody, V domains shown, also called Antibody 02; Ab2) VH: QVQLVQSGAEVKKPGASVKVSCKISGHSLSELSIHWVRQTPTKGFEWMGGFDPEENEIVYAQRFQGRVTMTEDTSIDTAYLTLSSLRSDDTAVYYCSIVGSFSGPALRPWGKGTMVTVSS VL: QAVLTQPSSVSGAPGQRVTISCTGSGSNIGAPYDVSWYQQLPGTAPKLLIYHNNKRPSGVPDRFSASKSGTSASLAITGLQADDEADYYCQSYDSSLSGSVFGGGTKVTVL | 20.7 | 3.2 | 15 | 0.376 | 0.103 | 
2 | Antibody 6 (as listed; germlining state in the experiment not stated) (antibody, V domains shown) VH: QVQLVQSGAEVKKPGASVKVSCKVSGYTLTELSIHWVRQAPGKGLEWMGGFDPEENEIVYAQRFQGRVTMTEDTSTDTAYMELSSLRSEDTAVYYCAIVGSFSPLTLGLWGQGTMVTVSS VL: QSVLTQPPSVSGAPGQRVTISCTGSGSNIGAPYDVSWYQQLPGTAPKLLIYHNNKRPSGVPDRFSGSKSGTSASLAITGLQAEDEADYYCATVEAGLSGSVFGGGTKLTVL |  | 1.73 |  |  |  | ~0.08
